Our source for the Kd values is patent publication US20260297205 (published 2026).

Numbering of substitutions follows the chain as printed.

B1: GH35 (antibody, V domains shown)
VH: EVQLVESGGGLVQPGGSLRLSCAASGFNVYYSSIHWVRQAPGKGLEWVASIYSYSGYTSYADSVKGRFTISADTSKNTAYLQMNSLRAEDTAVYYCARWSYKAMDYWGQGTLVTV
VL: DIQMTQSPSSLSASVGDRVTITCRASQSVSSAVAWYQQKPGKAPKLLIYSASSLYSGVPSRFSGSRSGTDFTLTISSLQPEDFATYYCQQDYYAPITFGQGTKVEIKR
B2: GH24 (antibody, V domains shown)
VH: EVQLVESGGGLVQPGGSLRLSCAASGFNVSSSSIHWVRQAPGKGLEWVASIYSSYGYTSYADSVKGRFTISADTSKNTAYLQMNSLRAEDTAVYYCARGDRYVWAMDYWGQGTLVTV
VL: B1 VL with D91S, Y92S, Y93S, A94Y, I96F
B3: GH16 (antibody, V domains shown)
VH: EVQLVESGGGLVQPGGSLRLSCAASGFNLSSYYIHWVRQAPGKGLEWVASIYPSYGYTSYADSVKGRFTISADTSKNTAYLQMNSLRAEDTAVYYCARWGKWYGYPFSGLDYWGQGTLVTV
VL: B1 VL with Y92W, A94F
B4: GH1 (antibody, V domains shown)
VH: EVQLVESGGGLVQPGGSLRLSCAASGFNFYYSSIHWVRQAPGKGLEWVAYIYSYSGYTSYADSVKGRFTISADTSKNTAYLQMNSLRAEDTAVYYCARYSWWGGMDYWGQGTLVTV
VL: B1 VL with D91S, Y93S, A94V
B5: GH11 (antibody, V domains shown)
VH: EVQLVESGGGLVQPGGSLRLSCAASGFNIYSSSIHWVRQAPGKGLEWVASISSSSGSTSYADSVKGRFTISADTSKNTAYLQMNSLRAEDTAVYYCARKYSGYYSNWYYPALDYWGQGTLVTV
VL: B1 VL with D91S, Y92S, Y93S, A94S, P95L
B6: GH13 (antibody, V domains shown)
VH: EVQLVESGGGLVQPGGSLRLSCAASGFNFSSSSIHWVRQAPGKGLEWVASISSYYSSTYYADSVKGRFTISADTSKNTAYLQMNSLRAEDTAVYYCARQYTSPWHWYKAMDYWGQGTLVTV
VL: B1 VL with D91S, Y92S, Y93S, A94S, P95L
B7: GH6 (antibody, V domains shown)
VH: B2 VH with S31Y, D100H, R101G, Y102S, V103M
VL: B1 VL with D91S, Y92W, Y93S, A94L, I96F
B8: GH34 (antibody, V domains shown)
VH: B1 VH with V29F, Y30S, S53P, Y54S, S55Y, W99Y, S100Y, K102F, A103G
VL: B1 VL with D91S, Y92W, Y93S, A94M, I96L
B9: GH7 (antibody, V domains shown)
VH: B2 VH with S30Y, S54Y, Y55S, D100R, R101Y, Y102S, V103W, W104F, M106L
VL: B1 VL with D91Y, Y92W, Y93S, A94F
B10: GH22 (antibody, V domains shown)
VH: B4 VH with Y30S, Y31S, S33Y, Y50S, S100R, W101F, W102I, G104A
VL: B1 VL with D91S, Y92H, Y93W, A94S
B11: GH20 (antibody, V domains shown)
VH: B1 VH with Y30S, Y31S, S33Y, W99Y, S100K, Y101W, K102Y
VL: B1 VL with D91S, Y92S, Y93W, A94Y
B12: GH38 (antibody, V domains shown)
VH: EVQLVESGGGLVQPGGSLRLSCAASGFNVYSSSIHWVRQAPGKGLEWVASIYPSYGYTSYADSVKGRFTISADTSKNTAYLQMNSLRAEDTAVYYCARWHWGWGSYGWGMDYWGQGTLVTV
VL: B1 VL with D91Q, Y92W, A94V
B13: GH3 (antibody, V domains shown)
VH: B2 VH with S50Y, Y52S, S54Y, G99E, D100G, R101W, V103W
VL: B1 VL with D91A, Y92W, A94L
B14: GH4 (antibody, V domains shown)
VH: B12 VH with Y30S, S33Y, P53S, W99E, H100S, W103S, S105Y, G107T, G109A
VL: B1 VL with D91S, Y92W, Y93R, A94Y, I96F
B15: GH2 (antibody, V domains shown)
VH: EVQLVESGGGLVQPGGSLRLSCAASGFNVSSSYIHWVRQAPGKGLEWVASIYSYYGYTSYADSVKGRFTISADTSKNTAYLQMNSLRAEDTAVYYCARENYGNWRSMYSGMDYWGQGTLVTV
VL: B1 VL with D91S, Y93F, A94L, I96F
B16: GH32 (antibody, V domains shown)
VH: B1 VH with V29F, Y31S, S33Y, W99Y, S100K, K102M, A103G
VL: B1 VL with D91S, Y92S, Y93W, A94M
B17: GH5 (antibody, V domains shown)
VH: B2 VH with S32Y, S33Y, S54Y, R101N, V103S
VL: B1 VL with D91S, Y92W, Y93Q, A94Y, I96F
B18: GH12 (antibody, V domains shown)
VH: EVQLVESGGGLVQPGGSLRLSCAASGFNLSSSYIHWVRQAPGKGLEWVASIYPYSGYTSYADSVKGRFTISADTSKNTAYLQMNSLRAEDTAVYYCARMYWTGALDYWGQGTLVTV
VL: B1 VL with D91S, Y92S, A94S
B19: GH33 (antibody, V domains shown)
VH: EVQLVESGGGLVQPGGSLRLSCAASGFNFYSSYIHWVRQAPGKGLEWVASIYSYSGYTSYADSVKGRFTISADTSKNTAYLQMNSLRAEDTAVYYCARYWYYYNGMDYWGQGTLVTV
VL: B1 VL with D91I, Y92R, A94V
B20: GH15 (antibody, V domains shown)
VH: B19 VH with F29V, Y30S, Y99T, W100S, Y102G, Y103R, N104G, G105A, M106L
VL: B1 VL with D91W, Y92S, Y93W, A94Y
B21: GH21 (antibody, V domains shown)
VH: B1 VH with Y30S, Y31S, S33Y, W99Y, S100M, K102Y
VL: B1 VL with D91S, Y92S, Y93W, A94S

The target of this test is human growth hormone (GH) (human, UniProt P01241). Kind of test: SPR, 20C. Background: In SPR one partner is held on a chip, and binding of the other changes the refractive index at the surface.
Sequence of human growth hormone (GH) (P01241 27-217): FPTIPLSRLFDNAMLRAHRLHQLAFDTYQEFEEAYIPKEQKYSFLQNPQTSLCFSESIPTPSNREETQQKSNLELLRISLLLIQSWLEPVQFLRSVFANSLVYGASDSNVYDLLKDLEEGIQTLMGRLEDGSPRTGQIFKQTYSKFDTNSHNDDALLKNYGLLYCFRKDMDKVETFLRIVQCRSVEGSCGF
Take B1: binding was put at a Kd of 14 nM. This counts as double-digit nanomolar.

For the molecule B2, binding was put at a Kd of 1.3 nM.

As to B3, the dissociation constant (Kd) (as a rule, a measure of binding affinity in units of concentration) was determined as 3.4 nM.

The molecule B4 had a Kd of 1.5 nM.

B5: binding was characterised by a dissociation constant (Kd) of 0.3 nM. This Kd is about 5-fold lower than that of the molecule before.

With B6, binding was put at a Kd of 0.3 nM.

Turning to B7, the Kd turned out to be 0.04 nM.

B8 registered a Kd of 20 nM.

In turn, B9 displayed a Kd of 6.1 nM.

Turning to B10, the Kd is 1.1 nM.

B11: the Kd was 1.9 nM.

Take B12: the Kd was 8.1 nM.

B13 yielded a Kd of 21 nM.

Molecule B14 showed a Kd of 5.4 nM.

B15 showed a Kd of 0.9 nM.

The molecule B16 showed a Kd of 17 nM. This Kd lies about 19-fold higher than the previous one.

Turning to B17, binding was put at a Kd of 4.9 nM.

With B18, the dissociation constant Kd is 0.08 nM.

B19 showed a Kd of 5.8 nM.

B20 displayed a Kd of 3.9 nM.

For the molecule B21, the Kd is 7.5 nM.
